These results are taken from patent publication US20250282828A1, “PEPTIDES FOR THE TREATMENT OF RESPIRATORY INFECTIONS OF VIRAL ORIGIN” (CENTRO DE INGENIERÍA GENÉTICA Y BIOTECNOLOGÍA, priority 2020, published 2025).

Where two headings read alike, the source gives them in different places. Positions of bridges follow the written chain, without caps; N, C: chain ends. Residues, ends and D or L forms follow the SMILES beside them. No end group written: not given here.

Experiment [1] has as its system SARS-CoV-2. The experiment is described as follows: microbe, parasite or virus in culture. To be noted: Severe acute respiratory syndrome coronavirus 2, Vero C1008, read-out: IC50 Compound.
The subject of experiment [2] is SARS-CoV-2.
Experiment [3] has as its system SARS-CoV-2. The source holds these as a separate data set.
The test system of the next experiment is viral proteins. The experiment can be described thus: BIACORE surface plasmon resonance interaction, all proteins evaluated. The class given is binding. In general terms: In SPR one partner is held on a chip, and binding of the other changes the refractive index at the surface.
The subject of experiment [4] is SARS-CoV-2. To be noted: 96 h, 100 μM.
The target of experiment [5] is T1, nucleocapsid protein of the SARS-CoV-2 virus (N protein) (SARS-CoV-2), P0DTC9. The experiment can be described thus: SPR (BIACORE).
Experiment [6] deals with T2, envelope protein of the Zika virus (ZIKV E) (Zika virus), Q32ZE1.
T2 chain: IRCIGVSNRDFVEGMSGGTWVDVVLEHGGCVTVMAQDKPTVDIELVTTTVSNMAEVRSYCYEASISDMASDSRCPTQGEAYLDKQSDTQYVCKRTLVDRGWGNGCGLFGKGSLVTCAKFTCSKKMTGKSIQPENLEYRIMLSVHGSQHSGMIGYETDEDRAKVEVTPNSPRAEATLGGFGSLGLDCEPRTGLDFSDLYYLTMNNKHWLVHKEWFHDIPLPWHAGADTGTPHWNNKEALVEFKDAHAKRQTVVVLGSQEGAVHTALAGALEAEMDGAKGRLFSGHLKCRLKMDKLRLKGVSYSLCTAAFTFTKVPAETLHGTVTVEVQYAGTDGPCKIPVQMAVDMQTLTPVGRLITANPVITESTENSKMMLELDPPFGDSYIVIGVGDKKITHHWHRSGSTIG
The experiment can be described thus: SPR (BIACORE).

Experiment [7] has as its target T3, Dengue 2 virus capsid protein (Dengue virus 2), P29990.
T3 chain: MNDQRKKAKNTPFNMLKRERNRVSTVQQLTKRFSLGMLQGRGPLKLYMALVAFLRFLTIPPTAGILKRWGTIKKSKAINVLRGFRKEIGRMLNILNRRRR
The experiment is described as follows: SPR (BIACORE).

Experiment [8] deals with T1, nucleocapsid protein of the SARS-CoV-2 …. The experiment is described as follows: SPR (BIACORE); Peptide SEQ ID NO: 2.
The target in experiment [9] is T3, Dengue 2 virus capsid protein (Dengue …). The experiment can be described thus: SPR (BIACORE); Peptide SEQ ID NO: 2.
The target of experiment [10] is T2, envelope protein of the Zika virus ….
For experiment [11], the target named is T4, non-structural protein 1 of the Dengue virus 2 (NS1-D2) (Dengue virus 2), P29990.
T4 chain: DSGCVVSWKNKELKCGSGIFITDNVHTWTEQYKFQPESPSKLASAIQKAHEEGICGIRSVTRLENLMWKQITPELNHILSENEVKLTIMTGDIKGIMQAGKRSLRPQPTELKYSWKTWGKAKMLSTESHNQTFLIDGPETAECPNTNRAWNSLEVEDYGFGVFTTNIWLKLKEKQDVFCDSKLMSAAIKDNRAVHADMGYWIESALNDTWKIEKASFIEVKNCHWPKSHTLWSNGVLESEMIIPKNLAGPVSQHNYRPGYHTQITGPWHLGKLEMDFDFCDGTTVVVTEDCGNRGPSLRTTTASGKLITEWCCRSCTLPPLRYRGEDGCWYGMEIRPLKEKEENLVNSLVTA

Experiment [12] addresses T3, Dengue 2 virus capsid protein (Dengue …).
For experiment [13], the target named is T1, nucleocapsid protein of the SARS-CoV-2 ….
For experiment [14] the target is unchanged. The experiment can be described thus: SPR (BIACORE); Peptide SEQ ID NO: 1.
Experiment [15] concerns the target T3, Dengue 2 virus capsid protein (Dengue …). The experiment is described as follows: SPR (BIACORE); Peptide SEQ ID NO: 1.

Turning to `NC(=O)c1nc(F)c[nH]c1=O` [Favipiravir], the IC50 in the experiment on SARS-CoV-2 [1] is 65300 nM.
In the case of `N=C(N)c1ccc2cc(OC(=O)c3ccc(N=C(N)N)cc3)ccc2c1` [Nafamostat], in the experiment on SARS-CoV-2 [1], the IC50 turned out to be 20100 nM.
Consider `CSCC[C@@H]1NC(=O)[C@H](Cc2c[nH]c3ccccc23)NC(=O)[C@@H](NC(=O)[C@H](C)NC(=O)[C@H](CCC(N)=O)NC(=O)[C@@H]2CCCN2C(=O)[C@@H]2CCCN2C(=O)[C@H](CCCNC(=N)N)NC(=O)[C@H](CCCNC(=N)N)NC(=O)[C@H](CCCNC(=N)N)NC(=O)[C@H](CCC(N)=O)NC(=O)[C@H](CCCNC(=N)N)NC(=O)[C@H](CCCNC(=N)N)NC(=O)[C@H](CCCCN)NC(=O)[C@H](CCCCN)NC(=O)[C@H](CCCNC(=N)N)NC(=O)CN)CSSC[C@@H](C(=O)O)NC(=O)[C@H]([C@@H](C)O)NC(=O)CNC(=O)[C@H](CC(C)C)NC(=O)[C@H](Cc2c[nH]cn2)NC(=O)[C@H](CCCNC(=N)N)NC(=O)[C@@H]2CCCN2C(=O)[C@H](CO)NC1=O` [Peptide SEQ ID NO: 23] (H-GRKKRRQRRRPPQACWMSPRHLGTC-OH; disulfide 15-25; N-terminus and C-terminus assumed), for which the IC50 with SARS-CoV-2 [2] is 3800 nM.
For the molecule `CCC(CC)COC(=O)[C@H](C)N[P@](=O)(OC[C@H]1O[C@@](C#N)(c2ccc3c(N)ncnn23)[C@H](O)[C@@H]1O)Oc1ccccc1` [Remdisivir], in the experiment with SARS-CoV-2 [1], the concentration for half-maximal inhibition (IC50) was determined as 2400 nM.
Still for that read-out and setting: for `NC(=O)c1ncn([C@@H]2O[C@H](CO)[C@@H](O)[C@H]2O)n1` [Ribavirin] the value was 40200 nM.
Consider Ivermectin, for which the IC50 in the experiment on SARS-CoV-2 [2] (read-out: IC50 Compound + peptide SEQ ID NO: 1, in presence of peptide SEQ ID NO: 1 at 10 μM, VeroE6) is 210 nM; in the experiment on SARS-CoV-2 [2] (read-out: IC50 Compound + peptide SEQ ID NO: 2, in presence of peptide SEQ ID NO: 2, VeroE6), 150 nM; with SARS-CoV-2 [2] (read-out: IC50 Compound + peptide SEQ ID NO: 3, in presence of peptide SEQ ID NO: 3, VeroE6) it was 200 nM; with SARS-CoV-2 [2] (read-out: IC50 Compound, compound alone, VeroE6), 2700 nM.
Regarding RVTQMNLNDRLASLADKV [SEQ ID NO: 22], the “inhibition of SARS-CoV-2 in primary cultures of human airway epithelium” value in the experiment with SARS-CoV-2 [3] is no more than 20%. In addition, the “interaction with the proteins evaluated” value with viral proteins is on record as “did not interact”. Further, the Inhibition % in the experiment with SARS-CoV-2 [4] is reported as 20.2%.

B1: Peptide SEQ ID NO: 14 (peptide)
peptide: NDRLASLYDKV
modifications: not checked
B1: the Kd amounted to 1140 nM in experiment [5], 3200 nM in [6] and 5910 nM in [7].

B2: Peptide SEQ ID NO: 15 (peptide)
peptide: NLNDRLASLYDKV
modifications: not checked
Consider B2, for which the values for the equilibrium dissociation constant (Kd) in experiment [5], in experiment [6] and in experiment [7] were 7820 nM, 62.4 nM and 1270 nM, respectively.

B3: Peptide SEQ ID NO: 2 (peptide)
peptide: RVTQMNLNDRLASLYDKV
modifications: not checked
For B3, the Kd in experiment [8] turned out to be 523 nM; in experiment [9] it was 754 nM; in experiment [6], 18200 nM.

B4: peptide identified in the Sequence Listing as SEQ ID NO: 1 (peptide)
peptide: RVTQMNLNDRLASLYDKV
modifications: not checked
For the molecule B4, the Kd in [10] is 1590 nM; in experiment [11], 769 nM; in [12] it was 1.67 nM; in experiment [13], 3.58 nM; in [6] it was 1590 nM; in experiment [14], 3.58 nM. Further, the Kd in [15] is 1.67 nM. For the same molecule, the koff in experiment [10] was 0.00154 s⁻¹; in experiment [11], 1.02e-05 s⁻¹; in experiment [12] it was 0.000413 s⁻¹; in [13], 0.000972 s⁻¹. For the same molecule, the results for the kon in experiment [10], in [12] and in [13] were 965 M⁻¹ s⁻¹, 247000 M⁻¹ s⁻¹ and 271000 M⁻¹ s⁻¹, respectively.

The IC50 is the point on the concentration scale where inhibition reaches its midpoint. A word on the Kd: it is the free concentration of one partner at which half of the binding sites on the other are occupied at equilibrium, for simple one-to-one binding. One may read the koff as the first-order rate constant of dissociation. A low value points to slow dissociation. As a reminder, the kon is a measure of how fast the partners come together. Read a high kon as fast association.
